According to patent US5616562A, “Methods and compositions using substance P to promote wound healing” (priority 1994, dated 1997):
Where a SMILES comes first, the peptide text is derived from it. [ ]: non-standard residue; d: D form.

What was measured:
[1] = tested on: persistent non-septic corneal epithelial defects; assay: Open-label clinical trial of topical SP in canine patients with chronic non-septic corneal epithelial defects; type: in vivo, dog; settings: 500 μ/ml SP topical, 8 times daily
Excerpt: This was a non-controlled open-label clinical trial conducted on canine patients seen in a specialty referral service for chronic, non-septic corneal epithelial defects. Criteria for inclusion included:
1. Absence of an identifiable underlying cause of the epithelial defect (lid abnormalities, decreased tear production etc.) on complete ophthalmic examination.
2. Persistence of the defect for at least 3 weeks.
3. Unresponsive to traditional therapy (topical broad spectrum antibiotics,some cases had received topical hyper-osmotic therapy, and 5 dogs had not healed after placement of a therapeutic soft contact bandage lens).
After obtaining informed consent from the owners, the dogs were taken into the hospital, an Elizabethan collar was placed (to keep the dog from rubbing its eye) and two drops of 500 μ/ml SP were instilled into the affected eye. The dogs were closely observed for any irritant effect of the drops. The dogs were then treated with one drop 8 times daily for duration of the trial.

corneal epithelium [2] = assay: Corneal re-epithelialization after debridement in rabbits given systemic capsaicin; type: in vivo, rabbit
Experimental: In order to investigate the effect of SP treatment on corneal epithelial cell growth, capsaicin (50 mg/kg) was injected subcutaneously into young rabbits on five consecutive days in order to deplete, lower, or block the release of SP in their corneas. Lidocain was injected subcutaneously into the injection site 10 minutes prior to the capsaicin injection. Three weeks after the last injection, the rabbits were anesthetized (ketamine/rompun), topical anesthetic applied to the cornea and the corneal epithelium of both eyes debrided to the limbal margin of clear cornea. The corneas were stained 2× daily with fluorescein and photographed using a cobalt filter to monitor re-epithelialization. Resultant photographs were projected onto a digitizing board and the surface area of ulceration determined. […] Clinically, the capsaicin treated rabbits differed from the control rabbits only in their impaired ability to re-epithelialize the denuded stroma.

corneal epithelium [3] = assay: Morphological examination of adherence of regenerated corneal epithelium; type: in vivo, rabbit; settings: after healing of the cornea; masked specimens; systemic capsaicin, or topical enkephalinase in normal rabbits
Excerpt: For both capsaicin-treated rabbits and those treated with topical enkephalinase, regenerated epithelial layers could be easily rubbed off as a sheet of cells after healing of the cornea. This was not found in the control rabbits. Specimens from the various treatment groups were masked and morphologically examined to determine the nature of epithelial adherence. […] Thus, it appears that SP and other neuropeptides contribute to the attachment of epithelial cells during wound healing. Such contribution may take the form of elaboration of extracellular matrices (e.g., fibronectin) as well as development of cellular attachment mechanism, which activity would be in addition to their mitogenic activity in promoting cellular proliferation.

epithelial cells [4] = assay: SP analogs and fragment: stimulation of DNA synthesis / cell growth; type: cell-based
Experimental: Several SP analogs were also tested for their ability to stimulate DNA synthesis. An SP analog where norleucine is substituted for methionine at the C-terminus was tested (Nle-SP). Norleucine is a structural analog of methionine where the sulfur is replaced with a CH2 group.

epithelial cells [5] = assay: Effect of enkephalinase on the ability of SP and insulin to stimulate DNA synthesis; type: cell-based
Experimental: Substance P (SP) was tested for its ability to stimulate cell growth in epithelial cells from both cornea and lens that were arrested in the G1 /Go phase of the cell cycle in serum free media. […] See, FIG. 1 for corneal and FIG. 2 for lens epithelial cells. To test whether this effect was due to SP, 1 μg/ml of enkephalinase (an enzyme that cleaves SP between amino acid residues 6-7, 7-8, and 9-10) was added.
In the previous experiment, the enkephalinase was added to the cells at the same time as the SP.

corneal epithelium [6] = assay: Corneal re-epithelialization after debridement in non-capsaicin rabbits treated with topical enkephalinase; type: in vivo, rabbit
Experimental: To evaluate the effect of SP depletion using another model, the corneal epithelium was removed from non-capsaicin treated rabbits as described above. Enkephalinase (which breaks down SP) was administered 4× daily to one eye of each bilaterally wounded rabbit. The fellow eye received vehicle only 4× daily. […] FIG. 4 underestimates the time course of epithelial healing of both capsaicin treated rabbits and enkephalinase treated corneas for many of these corneas had not re-epithelialized at the termination of the experiments. In 12 rabbits, the enkephalinase treated eye always took longer to heal. In FIG. 5, typical plots for one rabbit (the other 11 rabbits gave essentially the same results) of wound area with time are presented. The solid line represents the enkephalinase-treated eye while the broken line represents the control without enkephalinase. In each case the enkephalinase treated eye and the vehicle treated eye appeared to heal at the same rate for the first 80 to 90 hours. […] The initial healing rate was probably due to migration of pre-existing cells onto the peripheral wound. After 80 to 90 hours synthesis of new cells is required in order to completely cover the wound. […]

In the case of CSCC[C@H](NC(=O)[C@H](CC(C)C)NC(=O)CNC(=O)[C@H](Cc1ccccc1)NC(=O)[C@H](Cc1ccccc1)NC(=O)[C@H](CCC(N)=O)NC(=O)[C@H](CCC(N)=O)NC(=O)[C@@H]1CCCN1C(=O)[C@H](CCCCN)NC(=O)[C@@H]1CCCN1C(=O)[C@@H](N)CCCN=C(N)N)C(N)=O [SP, Substance P], the complications [1] is reported as “No complications were observed”.

In the case of COc1cc(CNC(=O)CCCC/C=C/C(C)C)ccc1O [capsaicin], the “time to re-epithelialize the denuded cornea” value (corneal epithelium [2]; capsaicin 50 mg/kg subcutaneously on five consecutive days, wounding three weeks later, vs 160 hours in non-capsaicin rabbits (FIG. 4)) is reported as 460 h, the “clinical evidence of impaired lacrimation or other secondary phenomenon” value (corneal epithelium [2]; capsaicin treated rabbits) is reported as “No clinical evidence” and the “adherence of regenerated corneal epithelium” value (corneal epithelium [3]) is reported as “poorly adhered”.

In the case of CC(C)C[C@H](NC(=O)[C@H](CC(C)C)NC(=O)[C@@H](Cc1c[nH]c2ccccc12)NC(=O)[C@H](Cc1ccccc1)NC(=O)[C@@H](Cc1c[nH]c2ccccc12)NC(=O)[C@H](CCC(N)=O)NC(=O)[C@H](CCC(N)=O)NC(=O)[C@@H]1CCCN1C(=O)[C@H](CCCCN)NC(=O)[C@@H]1CCCN1C(=O)[C@H](N)CCCNC(=N)N)C(N)=O [spantide] (H-[dR]PKPQQ[dW]F[dW]LL-NH2), the “promotion of cellular growth” value (epithelial cells [4]) is reported as “stimulate epithelial cell growth”.

For “fragment of substance P including only amino acids 5-11: fragment of substance P including only amino acids 5-11 (GlnPhePheGlyLeuMet)”, the “promotion of cellular growth” value (epithelial cells [4]) was “active”.

B1: enkephalinase: an enzyme that cleaves SP between amino acid residues 6-7, 7-8, and 9-10 (protein, UniProt P08473 2-750, looked up)
Neprilysin: GKSESQMDITDINTPKPKKKQRWTPLEISLSVLVLLLTIIAVTMIALYATYDDGICKSSDCIKSAARLIQNMDATTEPCTDFFKYACGGWLKRNVIPETSSRYGNFDILRDELEVVLKDVLQEPKTEDIVAVQKAKALYRSCINESAIDSRGGEPLLKLLPDIYGWPVATENWEQKYGASWTAEKAIAQLNSKYGKKVLINLFVGTDDKNSVNHVIHIDQPRLGLPSRDYYECTGIYKEACTAYVDFMISVARLIRQEERLPIDENQLALEMNKVMELEKEIANATAKPEDRNDPMLLYNKMTLAQIQNNFSLEINGKPFSWLNFTNEIMSTVNISITNEEDVVVYAPEYLTKLKPILTKYSARDLQNLMSWRFIMDLVSSLSRTYKESRNAFRKALYGTTSETATWRRCANYVNGNMENAVGRLYVEAAFAGESKHVVEDLIAQIREVFIQTLDDLTWMDAETKKRAEEKALAIKERIGYPDDIVSNDNKLNNEYLELNYKEDEYFENIIQNLKFSQSKQLKKLREKVDKDEWISGAAVVNAFYSSGRNQIVFPAGILQPPFFSAQQSNSLNYGGIGMVIGHEITHGFDDNGRNFNKDGDLVDWWTQQSASNFKEQSQCMVYQYGNFSWDLAGGQHLNGINTLGENIADNGGLGQAYRAYQNYIKKNGEEKLLPGLDLNHKQLFFLNFAQVWCGTYRPEYAVNSIKTDVHSPGNFRIIGTLQNSAEFSEAFHCRKNSYMNPEKKCRVW
With B1 the “effect of enkephalinase on SP-stimulated DNA synthesis” value (epithelial cells [5]; 1 μg/ml enkephalinase added at the same time as SP (FIG. 3)) was “destroyed all activity of SP by itself”, the “effect of enkephalinase on insulin-stimulated DNA synthesis” value (epithelial cells [5]; 1 μg/ml enkephalinase, insulin alone (FIG. 3)) was “did not affect the activity of insulin alone” and the “effect of enkephalinase pretreatment on the SP effect” value (epithelial cells [5]; cells pretreated 1 to 3 hours, enkephalinase then removed, especially in the presence of insulin) was “enhancement of the SP effect”. The “harmful effects on epithelial cells” value (epithelial cells [5]; enkephalinase by itself) was “no harmful effects”, the “healing rate (wound area with time)” value (corneal epithelium [6]; after the first 80 to 90 hours (FIG. 5)) was “slow dramatically” and the “re-epithelialization compared to fellow eye treated with vehicle” value (corneal epithelium [6]; enkephalinase 4× daily to one eye, 12 rabbits (FIG. 4)) was “markedly impair re-epithelialization”. For the same molecule, the “adherence of regenerated corneal epithelium” value (corneal epithelium [3]) was “poorly adhered”.
